{"source": "paper PMC10643566", "about": "“Insights into the mechanism of SARS-CoV-2 main protease autocatalytic maturation from model precursors” (Communications Biology, 2023)", "origin": "cited, not measured here", "biological_target": "MPro (SARS-CoV-2) (UniProt P0DTD1)", "settings": "cited from earlier work", "data": [{"substance": "MPro (from UniProt P0DTD1)", "values": [{"measurement": "Kd", "result": 1300, "unit": "nM"}]}]}
